Experimental data as given in the Immune Epitope Database (IEDB).

Legend:
Experiment in all cases: IEDB peptide-MHC binding, purified MHC/competitive/radioactivity; filed as Kd, often an IC50 or EC50 that approximates it; ≥ and ≤ were set here for values at or beyond the usual limits of such assays
HLA-A*33:01 = biological target: HLA-A*33:01
HLA-A*11:01 = biological target: HLA-A*11:01
HLA-A*68:01 = biological target: HLA-A*68:01
HLA-A*31:01 = biological target: HLA-A*31:01
HLA-A*03:01 = biological target: HLA-A*03:01
[1] = source organism: Vaccinia virus WR
[2] = source organism: Dengue virus 1 Brazil/97-11/1997
[3] = source organism: SARS coronavirus Tor2
[4] = source organism: Lymphocytic choriomeningitis virus (strain Armstrong)
[5] = source organism: Dengue virus 3 Martinique/1243/1999
[6] = source organism: Lassa virus Josiah

Sequence | Kd (HLA-A*33:01; [1]) [nM] | Kd (HLA-A*11:01; [1]) [nM] | Kd (HLA-A*68:01; [1]) [nM] | Kd (HLA-A*31:01; [1]) [nM] | Kd (HLA-A*03:01; [1]) [nM] | other results
SVTKSSSWK | ≥ 77700 | 2.51 | 41.2 | 19600 | 7.62 | 
TSETMYLTMK | 11000 | 111 | 471 | 2000 | 1920 | 
GLLSGQGPMK |  |  |  |  |  | Kd (HLA-A*03:01; [2]): 2.62 nM
ALYYVHSLLY | ≥ 24200 | 9.2 | 2240 | 11200 | 0.39 | 
EVMRSRWSR |  |  |  |  |  | Kd (HLA-A*33:01; [2]): 4.12 nM; Kd (HLA-A*68:01; [2]): 13.1 nM
RAFDIYNEK |  |  |  |  |  | Kd (HLA-A*33:01; [3]): ≥ 77700 nM; Kd (HLA-A*11:01; [3]): 3.58 nM; Kd (HLA-A*68:01; [3]): 378 nM; Kd (HLA-A*31:01; [3]): 106 nM; Kd (HLA-A*03:01; [3]): 10.8 nM
QQQQGQTVTK |  |  |  |  |  | Kd (HLA-A*33:01; [3]): ≥ 70000 nM; Kd (HLA-A*11:01; [3]): 492 nM; Kd (HLA-A*68:01; [3]): 11300 nM; Kd (HLA-A*31:01; [3]): ≥ 27800 nM; Kd (HLA-A*03:01; [3]): 10200 nM
TSFGPLVRK |  |  |  |  |  | Kd (HLA-A*33:01; [3]): 5250 nM; Kd (HLA-A*11:01; [3]): 0.21 nM; Kd (HLA-A*68:01; [3]): 7.04 nM; Kd (HLA-A*31:01; [3]): 452 nM; Kd (HLA-A*03:01; [3]): 4.39 nM
LMTLMKGASR |  |  |  |  |  | Kd (HLA-A*31:01; source organism: Dengue virus 4 Dominica/814669/1981): 72.6 nM
LLDSIKMIY | ≥ 48600 | 17800 | 722 | 3350 | 4730 | 
IISRTRLYDY | ≥ 70000 | 1270 | 4360 | 13200 | 225 | 
LIDLAFLIK | ≥ 77700 | 462 | ≥ 77700 | 2330 | 3480 | 
ALYEQVVMDY |  |  |  |  |  | Kd (HLA-A*33:01; [3]): ≥ 27100 nM; Kd (HLA-A*11:01; [3]): 3430 nM; Kd (HLA-A*68:01; [3]): ≥ 32500 nM; Kd (HLA-A*31:01; [3]): ≥ 44600 nM; Kd (HLA-A*03:01; [3]): 348 nM
NGQFIHFYR |  |  |  |  |  | Kd (HLA-A*33:01; [4]): ≥ 50400 nM; Kd (HLA-A*11:01; [4]): 2530 nM; Kd (HLA-A*68:01; [4]): 13.9 nM; Kd (HLA-A*31:01; [4]): 3.67 nM; Kd (HLA-A*03:01; [4]): 8350 nM
SFGGASCCLY |  |  |  |  |  | Kd (HLA-A*33:01; [3]): 3770 nM; Kd (HLA-A*11:01; [3]): 140 nM; Kd (HLA-A*68:01; [3]): 180 nM; Kd (HLA-A*31:01; [3]): 2500 nM; Kd (HLA-A*03:01; [3]): 302 nM
VTGLFKDCSK |  |  |  |  |  | Kd (HLA-A*33:01; [3]): ≥ 57100 nM; Kd (HLA-A*11:01; [3]): 4740 nM; Kd (HLA-A*68:01; [3]): 10300 nM; Kd (HLA-A*31:01; [3]): 5120 nM; Kd (HLA-A*03:01; [3]): 4670 nM
QILDNAAKY | ≥ 77700 | 8800 | ≥ 77700 | ≥ 77900 | ≥ 78000 | 

Sequence | Kd (HLA-A*33:01; [1]) [nM] | Kd (HLA-A*11:01; [1]) [nM] | Kd (HLA-A*68:01; [1]) [nM] | Kd (HLA-A*31:01; [1]) [nM] | Kd (HLA-A*03:01; [1]) [nM] | other results
TTLWEGSPGK |  |  |  |  |  | Kd (HLA-A*11:01; [2]): 85 nM
KVDTRTPRAK |  |  |  |  |  | Kd (HLA-A*03:01; [2]): 7.24 nM
IVASVNMVSR |  |  |  |  |  | Kd (HLA-A*68:01; [5]): 6.75 nM
VSLVKKNKK | ≥ 77700 | 2280 | ≥ 27400 | 856 | ≥ 58500 | 
TLDDLAIKQY | ≥ 70000 | 2920 | ≥ 62400 | ≥ 70000 | 18400 | 
VVMDYLDNLK |  |  |  |  |  | Kd (HLA-A*33:01; [3]): ≥ 46900 nM; Kd (HLA-A*11:01; [3]): 1960 nM; Kd (HLA-A*68:01; [3]): 6730 nM; Kd (HLA-A*31:01; [3]): ≥ 36600 nM; Kd (HLA-A*03:01; [3]): 6520 nM
ILSKIPYLR | 97.4 | 30.7 | 13.3 | 2.54 | 605 | 
RVIDPRRCMK |  |  |  |  |  | Kd (HLA-A*31:01; source organism: Dengue virus 2 Jamaica/1409/1983): 4.4 nM
AAIDGEYRLK |  |  |  |  |  | Kd (HLA-A*11:01; [5]): 349 nM
EMILMKMKK |  |  |  |  |  | Kd (HLA-A*68:01; source organism: Dengue virus 4 Philippines/H241/1956): 74.2 nM
PSILPSLIK | ≥ 77700 | 383 | ≥ 40900 | ≥ 36900 | 1850 | 
GVAMPNLYK |  |  |  |  |  | Kd (HLA-A*33:01; [3]): 14800 nM; Kd (HLA-A*68:01; [3]): 6.9 nM; Kd (HLA-A*31:01; [3]): 1650 nM
VTFRERYSY | ≥ 5000 | 4.5 | 106 | 81.9 | 56.5 | 
GFLSRNKKPR |  |  |  |  |  | Kd (HLA-A*33:01; [2]): 1770 nM
ELAELLEMK | 1210 | 1270 | 13.3 | 15900 | 3800 | 
SFYLISIFLH |  |  |  |  |  | Kd (HLA-A*33:01; [6]): 281 nM; Kd (HLA-A*11:01; [6]): 17100 nM; Kd (HLA-A*68:01; [6]): 3240 nM; Kd (HLA-A*31:01; [6]): 160 nM; Kd (HLA-A*03:01; [6]): 1020 nM
KSNILMWNK | 13700 | 2.25 | 2870 | 1.01 | 27.5 | 
